From patent US20240116985A1 (published 2024) come the findings set out here.

The target in experiment [1] is T1, B-cat-Halo (UniProt P35222 1-781, HaloTag NanoBRET 618 Ligand bound in the assay).
T1 sequence (looked up): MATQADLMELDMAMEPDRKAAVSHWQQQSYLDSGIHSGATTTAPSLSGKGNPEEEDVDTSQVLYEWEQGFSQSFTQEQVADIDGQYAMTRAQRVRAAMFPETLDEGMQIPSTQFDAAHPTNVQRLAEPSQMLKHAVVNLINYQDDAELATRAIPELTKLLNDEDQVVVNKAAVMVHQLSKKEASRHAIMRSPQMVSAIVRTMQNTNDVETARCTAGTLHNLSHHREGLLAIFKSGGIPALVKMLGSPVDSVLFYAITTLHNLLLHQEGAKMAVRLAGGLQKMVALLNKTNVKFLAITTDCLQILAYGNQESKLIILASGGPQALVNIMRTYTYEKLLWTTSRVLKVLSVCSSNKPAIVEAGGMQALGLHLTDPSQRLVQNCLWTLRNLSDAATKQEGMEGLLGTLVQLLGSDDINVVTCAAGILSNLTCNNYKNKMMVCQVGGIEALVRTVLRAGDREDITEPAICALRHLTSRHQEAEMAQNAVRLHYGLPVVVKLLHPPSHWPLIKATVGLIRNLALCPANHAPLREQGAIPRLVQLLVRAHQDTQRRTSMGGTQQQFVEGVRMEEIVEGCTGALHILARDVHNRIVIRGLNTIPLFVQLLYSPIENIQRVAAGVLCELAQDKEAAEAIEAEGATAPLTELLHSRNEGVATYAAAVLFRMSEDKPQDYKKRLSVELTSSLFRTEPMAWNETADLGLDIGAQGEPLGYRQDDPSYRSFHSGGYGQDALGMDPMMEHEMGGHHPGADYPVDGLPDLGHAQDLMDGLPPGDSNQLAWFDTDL
Nature of the experiment: cell-based or functional assay.

The target in experiment [2] is T2, full-length beta-Catenin (Uniprot ID P35222) (Homo sapiens (Human), UniProt P35222 1-781).
T2 construct: also called bCat; B-Catenin
T2 sequence: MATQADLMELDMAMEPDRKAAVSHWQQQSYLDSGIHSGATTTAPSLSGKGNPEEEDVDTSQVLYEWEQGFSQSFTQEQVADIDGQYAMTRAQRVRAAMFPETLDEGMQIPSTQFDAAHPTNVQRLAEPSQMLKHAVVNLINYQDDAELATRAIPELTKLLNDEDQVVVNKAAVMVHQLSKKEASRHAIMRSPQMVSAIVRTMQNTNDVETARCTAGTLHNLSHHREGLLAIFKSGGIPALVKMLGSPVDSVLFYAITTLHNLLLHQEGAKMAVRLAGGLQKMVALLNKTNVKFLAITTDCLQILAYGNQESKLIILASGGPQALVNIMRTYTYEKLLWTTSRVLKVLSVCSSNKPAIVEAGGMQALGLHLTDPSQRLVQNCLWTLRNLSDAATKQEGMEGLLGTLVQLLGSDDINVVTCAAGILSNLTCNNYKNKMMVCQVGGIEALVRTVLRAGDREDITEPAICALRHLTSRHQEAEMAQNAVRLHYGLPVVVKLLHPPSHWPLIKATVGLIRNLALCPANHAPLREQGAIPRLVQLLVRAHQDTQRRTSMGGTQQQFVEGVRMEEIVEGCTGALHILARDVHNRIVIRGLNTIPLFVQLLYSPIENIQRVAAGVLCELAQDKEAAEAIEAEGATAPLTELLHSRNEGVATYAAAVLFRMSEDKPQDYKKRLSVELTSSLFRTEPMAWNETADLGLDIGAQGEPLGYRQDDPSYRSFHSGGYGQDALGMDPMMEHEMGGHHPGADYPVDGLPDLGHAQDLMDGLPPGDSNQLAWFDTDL
Nature of the experiment: fluorescence polarization competition; full-length beta-catenin with 5FAM-labeled TCF4 residues 10-53 probe as competitor. Here is the method: The plate was incubated protected from light for 60 minutes at 20° C. prior to read. Reads were performed on a CLARIOstar plate reader (BMG Labtech) in duplicate, and data were fitted to a 1:1 binding model with hill slope using an in-house script. All provided concentrations are final concentrations.
On the technique in general: In fluorescence polarisation assays a small probe gives low polarisation when free and higher when bound to something large.

By IC50 is commonly meant the concentration that gives 50% inhibition. The low end stands for inhibition by little substance, the high end for a need for much substance.

Starred links: 1 amine or outer side, 2 acyl side, 3 side chain; linkers in the order of their positions; H or OH if unused. Positions of bridges follow the written chain, without caps; N, C: chain ends. Non-standard residues stand in square brackets, D forms with d. Primed or numbered codes have the meaning given here. PyrS2″ = (S)-3-amino-1-((pent-4-en-1-yloxy)carbonyl)pyrrolidine-3-carboxylic acid (stapling residue), C=CCCCOC(=O)N1CC[C@@](N[*:1])(C(=O)[*:2])C1; B5(4) = 2,2-bis(4-pentenyl)glycine = 2-amino-2-(pent-4-en-1-yl)hept-6-enoic acid (stitching residue), C=CCCCC(CCCC=C)(N[*:1])C(=O)[*:2]; B5(21) = 2-amino-2-(pent-4-en-1-yl)hept-6-enoic acid, bis(4-pentenyl)glycine (stitching residue), C=CCCCC(CCCC=C)(N[*:1])C(=O)[*:2]; (NMe2)GlnR(3) = [NMe2]GlnR, N5,N5-dimethyl-L-glutamine, CN(C)C(=O)CC[C@H](N[*:1])C(=O)[*:2]; (NHCyBu)AsnR = N4-cyclobutyl-L-asparagine, O=C(C[C@H](N[*:1])C(=O)[*:2])NC1CCC1; (NHCyPr)AsnR = N4-cyclopropyl-L-asparagine, O=C(C[C@H](N[*:1])C(=O)[*:2])NC1CC1; (NHiPr)AsnR = N4-isopropyl-L-asparagine, CC(C)NC(=O)C[C@H](N[*:1])C(=O)[*:2]; (NHnPr)AsnR = N4-propyl-L-asparagine, CCCNC(=O)C[C@H](N[*:1])C(=O)[*:2]; (NHEt)AsnR = N4-ethyl-L-asparagine, CCNC(=O)C[C@H](N[*:1])C(=O)[*:2]; TOMe = O-methyl-L-threonine, CO[C@H](C)[C@H](N[*:1])C(=O)[*:2]; Phe(3-COOH) = N[C@@H](Cc1cccc(C(=O)O)c1)C(=O)O; 2F3MeF = Cc1cccc(C[C@H](N[*:1])C(=O)[*:2])c1F; Phe(2-CF3) = N[C@@H](Cc1ccccc1C(F)(F)F)C(=O)O; AcLys = CC(=O)NCCCC[C@H](N[*:1])C(=O)[*:2]; Bta = N[C@@H](Cc1csc2ccccc12)C(=O)O; αAllylPro = C=CC[C@@]1(C(=O)O)CCCN1; tBuAla = CC(C)(C)C[C@H](N)C(=O)O; 3Thi = N[C@@H](Cc1ccsc1)C(=O)O; S8 = C=CCCCCCC[C@](C)(N)C(=O)O; Nle = CCCC[C@H](N)C(=O)O; Aib = CC(C)(N)C(=O)O

B1: I-2547 (peptide)
peptide: Ac-[αAllylPro]D[tBuAla][B5(4)]D[Phe(3-COOH)]AAF[MorphGln][PyrS2″][2F3MeF][Bta][MorphGln]-NH2
modifications: staple 1-4, 4-11; not fully specified; printed as Ac-PL3-Asp-Npg-B5-Asp-3COOHF-Ala-Ala-Phe-MorphGln-PyrS2-2F3MeF-BztA-MorphGln-NH2
As to B1, in experiment [1], the “NanoBRET Abs IC50” value worked out at 3.5 µM.

B2: I-541 (peptide)
peptide: Ac-[αAllylPro]D[TOMe][B5(21)]DEAAFQ[S8]F[Bta]Q-NH2
modifications: staple 1-4, 4-11
notes: It has the same description as I-542
Molecule B2 had an IC50 in experiment [2] of 0.18 µM.

B3: I-2545 (peptide)
peptide: Ac-[αAllylPro]D[tBuAla][B5(4)]D[Phe(3-COOH)]AAF[Me2Gln][PyrS2″][Phe(2-CF3)][Bta][MorphGln]-NH2
modifications: staple 1-4, 4-11; not fully specified; printed as Ac-PL3-Asp-Npg-B5-Asp-3COOHF-Ala-Ala-Phe-Me2Gln-PyrS2-2F3MeF-BztA-MorphGln-NH2
In the case of B3, the “NanoBRET Abs IC50” value in experiment [1] is 4 µM.

B4: I-2549 (peptide)
peptide: Ac-[αAllylPro]D[tBuAla][B5(4)]D[Phe(3-COOH)]AAF[AcLys][PyrS2″][2F3MeF][Bta][MorphGln]-NH2
modifications: staple 1-4, 4-11; not fully specified; printed as Ac-PL3-Asp-Npg-B5-Asp-3COOHF-Ala-Ala-Phe-AcLys-PyrS2-2F3MeF-BztA-MorphGln-NH2
Take B4: in experiment [1], the “NanoBRET Abs IC50” value stood at 2.5 µM.

B5: I-542 (peptide)
peptide: XDTXDEAAFQXFXQ
modifications: not fully specified; N-terminal Ac; PL3 at 1; TOMe at 3; B5 at 4; S8 at 11; BztA at 13; C-terminal NH2; staples PL3(1)-B5(4) and B5(4)-S8(11) by olefin metathesis
Turning to B5, the IC50 in experiment [2] was found to be 0.109 µM. In other words, the sub-micromolar range.

B6: I-539 (peptide)
peptide: Ac-[αAllylPro]DA[B5(21)][(NHCyBu)AsnR]DAAFV[S8]F[Bta]Q-NH2
modifications: staple 1-4, 4-11
B6 registered an IC50 in experiment [2] of 5 µM.

B7: I-2548 (peptide)
peptide: Ac-[αAllylPro]D[tBuAla][B5(4)]D[Phe(3-COOH)]AAF[AcLys][PyrS2″][2F3MeF][Bta][MorphGln]-NH2
modifications: staple 1-4, 4-11; not fully specified; printed as Ac-PL3-Asp-Npg-B5-Asp-3COOHF-Ala-Ala-Phe-AcLys-PyrS2-2F3MeF-BztA-MorphGln-NH2
For the molecule B7, the “NanoBRET Abs IC50” value in experiment [1] was found to be 3.6 µM.

B8: I-536 (peptide)
peptide: Ac-[αAllylPro]DA[B5(21)][(NHEt)AsnR]DAAFV[S8]F[Bta]Q-NH2
modifications: staple 1-4, 4-11
As for B8, the IC50 in experiment [2] turned out to be 4.47 µM.

B9: I-2552 (peptide)
peptide: Ac-[αAllylPro]D[tBuAla][B5(4)]D[Phe(3-COOH)][Aib]AF[Nle][PyrS2″][3Thi][Bta][(NHEt)GlnR]-NH2
modifications: staple 1-4, 4-11
With B9, in experiment [1], the “NanoBRET Abs IC50” value was determined as 10.4 µM.

B10: I-537 (peptide)
peptide: Ac-[αAllylPro]DA[B5(21)][(NHnPr)AsnR]DAAFV[S8]F[Bta]Q-NH2
modifications: staple 1-4, 4-11
B10 came in with an IC50 in experiment [2] of 5 µM.

B11: I-538 (peptide)
peptide: Ac-[αAllylPro]DA[B5(21)][(NHCyPr)AsnR]DAAFV[S8]F[Bta]Q-NH2
modifications: staple 1-4, 4-11
In experiment [2], B11 had an IC50 of 5 µM.

B12: I-2546 (peptide)
peptide: Ac-[αAllylPro]D[tBuAla][B5(4)]D[Phe(3-COOH)]AAF[MorphGln][PyrS2″][2F3MeF][Bta][MorphGln]-NH2
modifications: staple 1-4, 4-11; not fully specified; printed as Ac-PL3-Asp-Npg-B5-Asp-3COOHF-Ala-Ala-Phe-MorphGln-PyrS2-2F3MeF-BztA-MorphGln-NH2
As for B12, the “NanoBRET Abs IC50” value in experiment [1] came to 3.5 µM.

B13: I-2551 (peptide)
peptide: Ac-[αAllylPro]D[tBuAla][B5(4)]D[Phe(3-COOH)][Aib]AF[Nle][PyrS2″][3Thi][Bta][(NMe2)GlnR(3)]-NH2
modifications: staple 1-4, 4-11
Consider B13, for which the “NanoBRET Abs IC50” value in experiment [1] was 9.8 µM.

B14: I-535 (peptide)
peptide: Ac-[αAllylPro]DA[B5(21)][(NHiPr)AsnR]DAAFV[S8]F[Bta]Q-NH2
modifications: staple 1-4, 4-11
In experiment [2], B14 yielded an IC50 of 5 µM.
